Test results reported in the supplement of paper PMC11246515.
± gives the standard deviation of the averaged measurements.

Assay: total protein half-life in vivo (active degradation + dilution); higher = more stable protein
[1] = E. coli NCM3722 delta-clpP delta-lon delta-hslV, growth: N-lim chemostat, doubling time 6 h
[2] = E. coli NCM3722 delta-clpP, growth: N-lim chemostat, doubling time 6 h
[3] = E. coli NCM3722 delta-hslV, growth: N-lim chemostat, doubling time 6 h
[4] = E. coli NCM3722 delta-lon, growth: N-lim chemostat, doubling time 6 h
[5] = E. coli NCM3722 delta-smpB, growth: N-lim chemostat, doubling time 6 h
[6] = wild type E. coli NCM3722, growth: C-lim chemostat, doubling time 3 h
[7] = wild type E. coli NCM3722, growth: C-lim chemostat, doubling time 6 h
[8] = wild type E. coli NCM3722, growth: C-lim chemostat, doubling time 12 h
[9] = wild type E. coli NCM3722, growth: N-lim chemostat, doubling time 6 h
[10] = wild type E. coli NCM3722, growth: N-lim chemostat, doubling time 12 h
[11] = wild type E. coli NCM3722, growth: P-lim chemostat, doubling time 6 h
[12] = wild type E. coli NCM3722, growth: P-lim chemostat, doubling time 12 h

Sequence | total protein half-life in vivo [1] [h] | total protein half-life in vivo [2] [h] | total protein half-life in vivo [3] [h] | total protein half-life in vivo [4] [h] | total protein half-life in vivo [5] [h] | total protein half-life in vivo [6] [h] | total protein half-life in vivo [7] [h] | total protein half-life in vivo [8] [h] | total protein half-life in vivo [9] [h] | total protein half-life in vivo [10] [h] | total protein half-life in vivo [11] [h] | total protein half-life in vivo [12] [h]
MLDPNLLRNEPDAVAEKLARRGFKLDVDKLGALEERRKVLQVKTENLQAERNSRSKSIGQAKARGEDIEPLRLEVNKLGEELDAAKAELDALQAEIRDIALTIPNLPADEVPVGKDENDNVEVSRWGTPREFDFEVRDHVTLGEMHSGLDFAAAVKLTGSRFVVMKGQIARMHRALSQFMLDLHTEQHGYSENYVPYLVNQDTLYGTGQLPKFAGDLFHTRPLEEEADTSNYALIPTAEVPLTNLVRGEIIDEDDLPIKMTAHTPCFRSEAGSYGRDTRGLIRMHQFDKVEMVQIVRPEDSMAALEEMTGHAEKVLQLLGLPYRKIILCTGDMGFGACKTYDLEVWIPAQNTYREISSCSNVWDFQARRMQARCRSKSDKKTRLVHTLNGSGLAVGRTLVAVMENYQQADGRIEVPEVLRPYMNGLEYIG [P0A8L1] | 5.7 ± 0.32 | 5.43 ± 0.54 | 5.59 ± 0.06 | 5.511 ± 0.051 | 5.16 ± 0.24 | 3.66 ± 0.21 | 6.43 ± 0.77 | 11.5 ± 0.57 | 5.63 ± 0.29 | 9.239 ± 0.058 | 6.28 ± 0.27 | 13.3 ± 1.1
MMLSKKNSETLENFSEKLEVEGRSLWQDARRRFMHNRAAVASLIVLVLIALFVILAPMLSQFAYDDTDWAMMSSAPDMESGHYFGTDSSGRDLLVRVAIGGRISLMVGVAAALVAVVVGTLYGSLSGYLGGKVDSVMMRLLEILNSFPFMFFVILLVTFFGQNILLIFVAIGMVSWLDMARIVRGQTLSLKRKEFIEAAQVGGVSTSGIVIRHIVPNVLGVVVVYASLLVPSMILFESFLSFLGLGTQEPLSSWGALLSDGANSMEVSPWLLLFPAGFLVVTLFCFNFIGDGLRDALDPKDR [P0AFH6] | 5.16 ± 0.26 | 5.51 ± 0.1 |  | 4.46 ± 0.22 | 5.01 ± 0.59 | 3.23 ± 0.41 | 5.484 ± 0.036 | 10.8 ± 2.5 | 5.17 ± 0.17 | 8.49 ± 0.1 | 5.37 ± 0.46 | 9.83 ± 1.2
MSKGTTSQDAPFGTLLGYAPGGVAIYSSDYSSLDPQEYEDDAVFRSYIDDEYMGHKWQCVEFARRFLFLNYGVVFTDVGMAWEIFSLRFLREVVNDNILPLQAFPNGSPRAPVAGALLIWDKGGEFKDTGHVAIITQLHGNKVRIAEQNVIHSPLPQGQQWTRELEMVVENGCYTLKDTFDDTTILGWMIQTEDTEYSLPQPEIAGELLKISGARLENKGQFDGKWLDEKDPLQNAYVQANGQVINQDPYHYYTITESAEQELIKATNELHLMYLHATDKVLKDDNLLALFDIPKILWPRLRLSWQRRRHHMITGRMDFCMDERGLKVYEYNADSASCHTEAGLILERWAEQGYKGNGFNPAEGLINELAGAWKHSRARPFVHIMQDKDIEENYHAQFMEQALHQAGFETRILRGLDELGWDAAGQLIDGEGRLVNCVWKTWAWETAFDQIREVSDREFAAVPIRTGHPQNEVRLIDVLLRPEVLVFEPLWTVIPGNKAILPILWSLFPHHRYLLDTDFTVNDELVKTGYAVKPIAGRCGSNIDLVSHHEEVLDKTSGKFAEQKNIYQQLWCLPKVDGKYIQVCTFTVGGNYGGTCLRGDESLVIKKESDIEPLIVVKK [P0AES0] | 5 ± 0.066 | 4.62 ± 0.17 | 4.62 ± 0.18 | 6.12 ± 1.3 | 4.58 ± 0.23 | 3 ± 0.4 | 5.17 ± 0.38 | 10.6 ± 0.36 | 4.645 ± 0.024 | 8.42 ± 0.4 | 5.85 ± 0.5 | 11.2 ± 0.72
MELLSEYGLFLAKIVTVVLAIAAIAAIIVNVAQRNKRQRGELRVNNLSEQYKEMKEELAAALMDSHQQKQWHKAQKKKHKQEAKAAKAKAKLGEVATDSKPRVWVLDFKGSMDAHEVNSLREEITAVLAAFKPQDQVVLRLESPGGMVHGYGLAASQLQRLRDKNIPLTVTVDKVAASGGYMMACVADKIVSAPFAIVGSIGVVAQMPNFNRFLKSKDIDIELHTAGQYKRTLTLLGENTEEGREKFREELNETHQLFKDFVKRMRPSLDIEQVATGEHWYGQQAVEKGLVDEINTSDEVILSLMEGREVVNVRYMQRKRLIDRFTGSAAESADRLLLRWWQRGQKPLM [P0AG14] | 6.52 ± 0.91 | 6.18 ± 0.14 | 5.91 ± 0.15 | 6.12 ± 0.27 | 6.07 ± 0.87 | 3.11 ± 0.099 |  | 11.3 ± 0.26 | 6.076 ± 0.021 | 14.1 ± 1.8 | 5.6 ± 0.61 | 11.4 ± 1.4
MTPDELARLTGYSRQTINKWVRKEGWTTSPKPGVQGGKARLVHVNEQVREYIRNAERPEGQGEAPALSGDAPLEVLLVTLAKEMTPVEQKQFTSLLLREGIIGLLQRLGIRDSK [P0AD37] |  |  |  |  |  | 1.89 |  |  |  |  |  | 
MIKKIFALPVIEQISPVLSRRKLDELDLIVVDHPQVKASFALQGAHLLSWKPAGEEEVLWLSNNTPFKNGVAIRGGVPVCWPWFGPAAQQGLPAHGFARNLPWTLKSHHEDADGVALTFELTQSEETKKFWPHDFTLLAHFRVGKTCEIDLESHGEFETTSALHTYFNVGDIAKVSVSGLGDRFIDKVNDAKENVLTDGIQTFPDRTDRVYLNPQDCSVINDEALNRIIAVGHQHHLNVVGWNPGPALSISMGDMPDDGYKTFVCVETAYASETQKVTKEKPAHLAQSIRVAKR | 5.78 ± 0.46 | 5.24 ± 0.6 | 6.17 ± 1.1 | 5.11 ± 0.53 | 5.67 ± 0.29 |  |  | 13 ± 1.6 | 5.42 ± 0.3 | 13.7 ± 2.5 | 5.72 ± 0.72 | 12.9 ± 1.8
